From paper PMC4304825, “Six Amino Acid Residues in a 1200 Å2 Interface Mediate Binding of Factor VIII to an IgG4κ Inhibitory Antibody” (PLoS ONE, 2015)

B1: WT-BDD-FVIII (wild-type B-domain-deleted factor VIII) (natural protein)
chain 1: ATRRYYLGAVELSWDYMQSDLGELPVDARFPPRVPKSFPFNTSVVYKKTLFVEFTDHLFNIAKPRPPWMGLLGPTIQAEVYDTVVITLKNMASHPVSLHAVGVSYWKASEGAEYDDQTSQREKEDDKVFPGGSHTYVWQVLKENGPMASDPLCLTYSYLSHVDLVKDLNSGLIGALLVCREGSLAKEKTQTLHKFILLFAVFDEGKSWHSETKNSLMQDRDAASARAWPKMHTVNGYVNRSLPGLIGCHRKSVYWHVIGMGTTPEVHSIFLEGHTFLVRNHRQASLEISPITFLTAQTLLMDLGQFLLFCHISSHQHDGMEAYVKVDSCPEEPQLRMKNNEEAEDYDDDLTDSEMDVVRFDDDNSPSFIQIRSVAKKHPKTWVHYIAAEEEDWDYAPLVLAPDDRSYKSQYLNNGPQRIGRKYKKVRFMAYTDETFKTREAIQHESGILGPLLYGEVGDTLLIIFKNQASRPYNIYPHGITDVRPLYSRRLPKGVKHLKDFPILPGEIFKYKWTVTVEDGPTKSDPRCLTRYYSSFVNMERDLASGLIGPLLICYKESVDQRGNQIMSDKRNVILFSVFDENRSWYLTENIQRFLPNPAGVQLEDPEFQASNIMHSINGYVFDSLQLSVCLHEVAYWYILSIGAQTDFLSVFFSGYTFKHKMVYEDTLTLFPFSGETVFMSMENPGLWILGCHNSDFRNRGMTALLKVSSCDKNTGDYYEDSYEDISAYLLSKNNAIEPR
chain 2: EITRTTLQSDQEEIDYDDTISVEMKKEDFDIYDEDENQSPRSFQKKTRHYFIAAVERLWDYGMSSSPHVLRNRAQSGSVPQFKKVVFQEFTDGSFTQPLYRGELNEHLGLLGPYIRAEVEDNIMVTFRNQASRPYSFYSSLISYEEDQRQGAEPRKNFVKPNETKTYFWKVQHHMAPTKDEFDCKAWAYFSDVDLEKDVHSGLIGPLLVCHTNTLNPAHGRQVTVQEFALFFTIFDETKSWYFTENMERNCRAPCNIQMEDPTFKENYRFHAINGYIMDTLPGLVMAQDQRIRWYLLSMGSNENIHSIHFSGHVFTVRKKEEYKMALYNLYPGVFETVEMLPSKAGIWRVECLIGEHLHAGMSTLFLVYSNKCQTPLGMASGHIRDFQITASGQYGQWAPKLARLHYSGSINAWSTKEPFSWIKVDLLAPMIIHGIKTQGARQKFSSLYISQFIIMYSLDGKKWQTYRGNSTGTLMVFFGNVDSSGIKHNIFNPPIIARYIRLHPTHYSIRSTLRMELMGCDLNSCSMPLGMESKAISDAQITASSYFTNMFATWSPSKARLHLQGRSNAWRPQVNNPKEWLQVDFQKTMKVTGVTTQGVKSLLTSMYVKEFLISSSQDGHQWTLFFQNGKVKVFQGNQDSFTPVVNSLDPPLLTRYLRIHPQSWVHQIALRMEVLGCEAQDLY
B2: BDD-FVIII-F2196K (natural protein)
chain 1: ATRRYYLGAVELSWDYMQSDLGELPVDARFPPRVPKSFPFNTSVVYKKTLFVEFTDHLFNIAKPRPPWMGLLGPTIQAEVYDTVVITLKNMASHPVSLHAVGVSYWKASEGAEYDDQTSQREKEDDKVFPGGSHTYVWQVLKENGPMASDPLCLTYSYLSHVDLVKDLNSGLIGALLVCREGSLAKEKTQTLHKFILLFAVFDEGKSWHSETKNSLMQDRDAASARAWPKMHTVNGYVNRSLPGLIGCHRKSVYWHVIGMGTTPEVHSIFLEGHTFLVRNHRQASLEISPITFLTAQTLLMDLGQFLLFCHISSHQHDGMEAYVKVDSCPEEPQLRMKNNEEAEDYDDDLTDSEMDVVRFDDDNSPSFIQIRSVAKKHPKTWVHYIAAEEEDWDYAPLVLAPDDRSYKSQYLNNGPQRIGRKYKKVRFMAYTDETFKTREAIQHESGILGPLLYGEVGDTLLIIFKNQASRPYNIYPHGITDVRPLYSRRLPKGVKHLKDFPILPGEIFKYKWTVTVEDGPTKSDPRCLTRYYSSFVNMERDLASGLIGPLLICYKESVDQRGNQIMSDKRNVILFSVFDENRSWYLTENIQRFLPNPAGVQLEDPEFQASNIMHSINGYVFDSLQLSVCLHEVAYWYILSIGAQTDFLSVFFSGYTFKHKMVYEDTLTLFPFSGETVFMSMENPGLWILGCHNSDFRNRGMTALLKVSSCDKNTGDYYEDSYEDISAYLLSKNNAIEPR
chain 2: EITRTTLQSDQEEIDYDDTISVEMKKEDFDIYDEDENQSPRSFQKKTRHYFIAAVERLWDYGMSSSPHVLRNRAQSGSVPQFKKVVFQEFTDGSFTQPLYRGELNEHLGLLGPYIRAEVEDNIMVTFRNQASRPYSFYSSLISYEEDQRQGAEPRKNFVKPNETKTYFWKVQHHMAPTKDEFDCKAWAYFSDVDLEKDVHSGLIGPLLVCHTNTLNPAHGRQVTVQEFALFFTIFDETKSWYFTENMERNCRAPCNIQMEDPTFKENYRFHAINGYIMDTLPGLVMAQDQRIRWYLLSMGSNENIHSIHFSGHVFTVRKKEEYKMALYNLYPGVFETVEMLPSKAGIWRVECLIGEHLHAGMSTLFLVYSNKCQTPLGMASGHIRDFQITASGQYGQWAPKLARLHYSGSINAWSTKEPFSWIKVDLLAPMIIHGIKTQGARQKFSSLYISQFIIMYSLDGKKWQTYRGNSTGTLMVFFGNVDSSGIKHNIFNPPIIARYIRLHPTHYSIRSTLRMELMGCDLNSCSMPLGMESKAISDAQITASSYKTNMFATWSPSKARLHLQGRSNAWRPQVNNPKEWLQVDFQKTMKVTGVTTQGVKSLLTSMYVKEFLISSSQDGHQWTLFFQNGKVKVFQGNQDSFTPVVNSLDPPLLTRYLRIHPQSWVHQIALRMEVLGCEAQDLY
B3: BDD-FVIII-M2199A (natural protein)
chain 1: ATRRYYLGAVELSWDYMQSDLGELPVDARFPPRVPKSFPFNTSVVYKKTLFVEFTDHLFNIAKPRPPWMGLLGPTIQAEVYDTVVITLKNMASHPVSLHAVGVSYWKASEGAEYDDQTSQREKEDDKVFPGGSHTYVWQVLKENGPMASDPLCLTYSYLSHVDLVKDLNSGLIGALLVCREGSLAKEKTQTLHKFILLFAVFDEGKSWHSETKNSLMQDRDAASARAWPKMHTVNGYVNRSLPGLIGCHRKSVYWHVIGMGTTPEVHSIFLEGHTFLVRNHRQASLEISPITFLTAQTLLMDLGQFLLFCHISSHQHDGMEAYVKVDSCPEEPQLRMKNNEEAEDYDDDLTDSEMDVVRFDDDNSPSFIQIRSVAKKHPKTWVHYIAAEEEDWDYAPLVLAPDDRSYKSQYLNNGPQRIGRKYKKVRFMAYTDETFKTREAIQHESGILGPLLYGEVGDTLLIIFKNQASRPYNIYPHGITDVRPLYSRRLPKGVKHLKDFPILPGEIFKYKWTVTVEDGPTKSDPRCLTRYYSSFVNMERDLASGLIGPLLICYKESVDQRGNQIMSDKRNVILFSVFDENRSWYLTENIQRFLPNPAGVQLEDPEFQASNIMHSINGYVFDSLQLSVCLHEVAYWYILSIGAQTDFLSVFFSGYTFKHKMVYEDTLTLFPFSGETVFMSMENPGLWILGCHNSDFRNRGMTALLKVSSCDKNTGDYYEDSYEDISAYLLSKNNAIEPR
chain 2: EITRTTLQSDQEEIDYDDTISVEMKKEDFDIYDEDENQSPRSFQKKTRHYFIAAVERLWDYGMSSSPHVLRNRAQSGSVPQFKKVVFQEFTDGSFTQPLYRGELNEHLGLLGPYIRAEVEDNIMVTFRNQASRPYSFYSSLISYEEDQRQGAEPRKNFVKPNETKTYFWKVQHHMAPTKDEFDCKAWAYFSDVDLEKDVHSGLIGPLLVCHTNTLNPAHGRQVTVQEFALFFTIFDETKSWYFTENMERNCRAPCNIQMEDPTFKENYRFHAINGYIMDTLPGLVMAQDQRIRWYLLSMGSNENIHSIHFSGHVFTVRKKEEYKMALYNLYPGVFETVEMLPSKAGIWRVECLIGEHLHAGMSTLFLVYSNKCQTPLGMASGHIRDFQITASGQYGQWAPKLARLHYSGSINAWSTKEPFSWIKVDLLAPMIIHGIKTQGARQKFSSLYISQFIIMYSLDGKKWQTYRGNSTGTLMVFFGNVDSSGIKHNIFNPPIIARYIRLHPTHYSIRSTLRMELMGCDLNSCSMPLGMESKAISDAQITASSYFTNAFATWSPSKARLHLQGRSNAWRPQVNNPKEWLQVDFQKTMKVTGVTTQGVKSLLTSMYVKEFLISSSQDGHQWTLFFQNGKVKVFQGNQDSFTPVVNSLDPPLLTRYLRIHPQSWVHQIALRMEVLGCEAQDLY

What follows are binders tested against T1, von Willebrand factor (VWF) (UniProt P04275 764-2813) (assay: SPR; VWF attached to a CM4 chip by amine coupling at low density (200 RUs); BDD-FVIII proteins injected in a 3-fold concentration series from 0.22-18 nM, single-cycle kinetics; fit to a 1:1 model; Biacore T200). Details: both partners purified.
T1 construct: von Willebrand factor; Immobilised by amine coupling
B1 showed a Kd of 0.29 nM, a koff of 0.00069 s⁻¹ and a kon of 2.4e+06 M⁻¹ s⁻¹.
Binder B2 has a Kd of 0.2 nM, a koff of 0.00054 s⁻¹ and a kon of 2.9e+06 M⁻¹ s⁻¹.
Work on B3 yielded a Kd of 0.25 nM, a koff of 0.00067 s⁻¹ and a kon of 2.7e+06 M⁻¹ s⁻¹.
